Assay results as given in US20070178531A1 (BIOCHECK, published 2007).
Residue numbers refer to the chain shown, from its start.

T1: Mouse Id1: Histidine (mouse, UniProt P20067-2 1-148, limits assumed)
T1 construct: Fusion protein made in E. coli from vector pGW07; also called m-Id1-His; not shown: His tag
T1 sequence (looked up): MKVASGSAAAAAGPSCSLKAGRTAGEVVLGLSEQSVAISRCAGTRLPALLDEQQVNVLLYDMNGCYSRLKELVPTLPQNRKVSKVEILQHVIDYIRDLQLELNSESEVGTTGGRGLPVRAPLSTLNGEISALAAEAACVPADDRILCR

T2: Human Id3: Histidine (human, UniProt Q02535 1-119 at identity 1.00))
T2 construct: Fusion protein made in E. coli from vector pGW07; also called h-Id3: His; Human Id3 (coated wells); not shown: His tag
T2 chain: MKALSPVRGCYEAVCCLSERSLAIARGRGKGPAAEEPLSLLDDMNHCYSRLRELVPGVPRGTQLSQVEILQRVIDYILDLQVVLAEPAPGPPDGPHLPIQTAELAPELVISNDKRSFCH

T3: Human Id1: Histidine (human, UniProt P41134 1-155, limits assumed)
T3 construct: Fusion protein made in E. coli from vector pGW07; also called h-Id1: his; not shown: His tag
T3 sequence (looked up): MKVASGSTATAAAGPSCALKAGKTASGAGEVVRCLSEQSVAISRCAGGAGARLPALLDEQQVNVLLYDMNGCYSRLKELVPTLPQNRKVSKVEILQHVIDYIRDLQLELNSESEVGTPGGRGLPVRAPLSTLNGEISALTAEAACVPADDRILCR

T4: Human Id2: Histidine (human, UniProt Q02363 1-134, limits assumed)
T4 construct: Fusion protein made in E. coli from vector pGW07; also called h-Id2: His; not shown: His tag
T4 sequence (looked up): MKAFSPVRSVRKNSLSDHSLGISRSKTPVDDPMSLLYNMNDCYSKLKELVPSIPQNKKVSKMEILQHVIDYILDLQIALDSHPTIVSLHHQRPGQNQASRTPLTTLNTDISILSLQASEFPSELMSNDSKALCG

T5: Mouse Id3: Histidine (mouse, UniProt P41133 1-119)
T5 construct: Fusion protein made in E. coli from vector pGW07; also called m-Id3: His; Mouse Id3 (coated wells); not shown: His tag
T5 sequence: T2 chain with G31S, A33S, A34T, A105T, N112K

T6: Mouse Id2: Histidine (mouse, UniProt P41136 1-134, limits assumed)
T6 construct: Fusion protein made in E. coli from vector pGW07; also called m-Id2: His; not shown: His tag
T6 sequence (looked up): T4 sequence (looked up) with S60T, A131V

B1: rabbit monoclonal anti-human Id3, clone #BCH-4/#3-3 (antibody, V domains shown)
VH: QSVEESGGRLVTPGTPLTLTCTVSGIDLSSYAMSWVRQAPGKGLEWIGVIFPSNNVYYASWAKGRFTISKTSTTVDLKITSPTTEDTATYFCASMGAFDSWGPGTLVTVSS
VL: QVLTQTPSPVSAAVGGTVTINCQASQSIYNDNDLAWFQQKPGQPPKLLIYDASTLTSGVPSRFKGSGSGTQFTLTISDLDCDDAATYYCAARYSGNIYGFGGGTEVVVK
notes: Rabbit IgG from a rabbit hybridoma; also called h Id3 MoAb 3-3
B2: rabbit monoclonal anti-mouse/human Id3, clone #BCH-4/#16-1 (antibody, V domains shown)
VH: QSVEESGGRLVTPGTPLTLTCTASGFSLSSYYIHWVRQAPGKALEWIGYISDGGTTYYASWAKGRFTISKTSSTTVDLKMTSLTTEDTATYFCARQGFNIWGPGTLVTVSL
VL: AVLTQTPSPVSAAVGGTVTISCQSSQSVYNNNWLSWFQQKSGQPPKLLIYETSKLESGVPSRFKGSGSGTQFTLTIIDVQCDDAATYYCLGGYWTTSDNNIFGGGTEVVVK
notes: Rabbit IgG from a rabbit hybridoma; also called m/h Id3 MoAb 16-1
B3: rabbit monoclonal anti-mouse/human Id3, clone #BCH-4/#17-3 (antibody, V domains shown)
VH: B2 VH with S30N, Y31V, A43G, G54D, T56A, Y57R, S60T, D77N
VL: B2 VL with T19S, Y29W, S41P, I77S, I101V
notes: Rabbit IgG from a rabbit hybridoma; also called m/h Id3 MoAb 17-3; BCH-3/#17-3
B4: rabbit monoclonal anti-mouse/human Id3, clone #BCH-4/#6-1 (antibody, V domains shown)
VH: B2 VH with S30N, Y31V, A43G, G54D, T56A, Y57R, S60T, D77N
VL: B2 VL with T19S, Y29W, S41P, I77S, I101V
notes: Rabbit IgG from a rabbit hybridoma; also called m/h Id3 MoAb 6-1
B5: rabbit monoclonal anti-mouse/human Id3, clone #BCH-4/#42-1 (antibody, V domains shown)
VH: B2 VH
VL: B2 VL with T95S
notes: Rabbit IgG from a rabbit hybridoma; also called m/h Id3 MoAb 42-1

What follows are binders tested against T1, Mouse Id1: Histidine (assay: ELISA, Ab 0.250 µg/ml).
Description: (§1) The rabbit monoclonal anti-human Id3 (clone #3-3) and the rabbit monoclonal anti-mouse/human Id3 (clones #6-1, 16-1, 17-3, and 42-1) produced in Example 6 were tested reactivity against the following antigens: mouse Id1:His, human Id1:His, mouse Id2:His, human Id2:His, mouse Id3:His, human Id3:His, mouse Id4:His, human Id4:His and GST.
(§2) 1. Microtiter wells (prepared in accordance with Example 6) were coated (0.1 μg/well) with mouse Id1:His, human Id1:His, human Id2:His, human Id3:His, and 1.0 μg/well with GST. [0155] 2. Antibody Diluent: 0.25% (w/v) BSA in 0.015M KPO₄ Buffer, 0.85% (w/v) NaCl, 0.1% (w/v) NaN₃, pH=7.40 [0156] 3. Rabbit monoclonal anti-human Id3 (clone #3-3) prepared in Example 7 was diluted to […] with the antibody diluent. […] 4. Rabbit monoclonal anti-mouse/human Id3 (clones #6-1, 16-1, 17-3, 42-1) prepared in Example 7 was diluted to 0.005, 0.010, 0.025, 0.05, 0.10, 0.25, and 0.50 μg/ml with the antibody diluent. […] 5. Conjugate Diluent: 50% (v/v) which consists of an aqueous solution containing Fetal Bovine Serum in 0.05 M Tris, 1% (v/v) Proclin-300, pH 7.6. [0159] 6. Conjugate: Goat anti-rabbit IgG (H+L)-HRP conjugate. [0160] 7. TMB reagent. […] 8. Stop solution (1 N HCI). Method
(§3) 1. Dispense 100 μL of antibody diluent, diluted rabbit monoclonal human Id3, and mouse/human Id3 hybridoma supernatants into appropriate wells. […] 2. Incubate at room temperature with mechanical shaking at 750 rpm for 90 minutes. [0165] 3. Remove the incubation mixture by flicking plate content into an appropriate waste container followed by rinsing the wells 5 times with distilled water. [0166] 4. Strike the wells sharply onto absorbent paper or paper towels to remove all residual water droplets. [0167] 5. Dispense 100 μL of 1:50,000 Goat Anti-Rabbit IgG-HRP Conjugate Reagent into each well. Gently mix for 5 seconds. [0168] 6. Incubate at room temperature with mechanical shaking at 750 rpm for 90 minutes. [0169] 7. Repeat procedures 3 and 4. [0170] 8. Dispense 100 μL of TMB Reagent into each well. Gently mix for 5 seconds. [0171] 9. Incubate at room temperature with mechanical shaking at 750 rpm for 20 minutes. […] 10.
With B1 the A450 was 0.048 A450. Binder B2 has an A450 of 0.047 A450. Work on B3 yielded an A450 of 0.052 A450. B4 showed an A450 of 0.048 A450. Work on B5 yielded an A450 of 0.054 A450.

Biological target: T2, Human Id3: Histidine
Assay: ELISA, Ab 0.250 µg/ml
Description: as §1, §2, §3
For B2, the A450 was 2.83 A450. For B3, the A450 was 3.32 A450. For B4, the A450 was 3.02 A450. Work on B5 yielded an A450 of 3.31 A450.

What follows are binders tested against T7, glutathione S-transferase (GST) (UniProt P08515 1-218 = GST) (assay: ELISA, Ab 0.250 µg/ml).
T7 construct: also called carrier protein GST
T7 sequence (P08515 whole entry): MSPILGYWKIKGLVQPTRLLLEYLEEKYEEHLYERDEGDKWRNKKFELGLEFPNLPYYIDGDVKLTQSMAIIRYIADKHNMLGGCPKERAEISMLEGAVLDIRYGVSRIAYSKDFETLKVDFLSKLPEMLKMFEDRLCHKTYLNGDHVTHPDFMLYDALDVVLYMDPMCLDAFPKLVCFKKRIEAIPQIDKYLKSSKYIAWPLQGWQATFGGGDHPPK
Description: as §1, §2, §3
For B1, the A450 was 0.048 A450. Binder B2 has an A450 of 0.048 A450. In the case of B3, the A450 is reported as 0.052 A450. Binder B4 has an A450 of 0.051 A450. B5 was tested, and the A450 was 0.051 A450.

What follows are binders tested against T3, Human Id1: Histidine (assay: ELISA, Ab 0.250 µg/ml).
Description: as §1, §2, §3
With B1 the A450 was 0.047 A450. Work on B2 yielded an A450 of 0.045 A450. In the case of B3, the A450 is reported as 0.045 A450. Work on B4 yielded an A450 of 0.051 A450. With B5 the A450 was 0.044 A450.

These binders were tested against T4, Human Id2: Histidine (assay: ELISA, Ab 0.250 µg/ml).
Description: as §1, §2, §3
Work on B1 yielded an A450 of 0.054 A450. B2 showed an A450 of 0.052 A450. B3 showed an A450 of 0.054 A450. With B4 the A450 was 0.056 A450. Work on B5 yielded an A450 of 0.051 A450.

These binders were tested against T5, Mouse Id3: Histidine (assay: ELISA, Ab 0.250 µg/ml).
Description: as §1, §2, §3
B2 gave an A450 of 3.21 A450. With B3 the A450 was 3.62 A450. B4 showed an A450 of 3.42 A450. B5 gave an A450 of 3.55 A450.

The binders below were run against T6, Mouse Id2: Histidine (assay: ELISA, Ab 0.250 µg/ml).
Description: as §1, §2, §3
B1 was tested, and the A450 was 0.051 A450. Work on B2 yielded an A450 of 0.063 A450. B3 showed an A450 of 0.064 A450. B4 showed an A450 of 0.062 A450. B5 was tested, and the A450 was 0.063 A450.

These binders were tested against T1, Mouse Id1: Histidine (assay: ELISA, Ab 0.100 µg/ml).
Description: as §1, §2, §3
Binder B1 has an A450 of 0.047 A450. B2 gave an A450 of 0.047 A450. B3 was tested, and the A450 was 0.051 A450. With B4 the A450 was 0.049 A450. In the case of B5, the A450 is reported as 0.049 A450.

Biological target: T2, Human Id3: Histidine
Assay: ELISA, Ab 0.100 µg/ml
Description: as §1, §2, §3
B2 was tested, and the A450 was 1.99 A450. B3 was tested, and the A450 was 2.6 A450. Binder B4 has an A450 of 2.36 A450. With B5 the A450 was 2.6 A450.

These binders were tested against T7, glutathione S-transferase (GST) (assay: ELISA, Ab 0.100 µg/ml).
Description: as §1, §2, §3
Binder B1 has an A450 of 0.048 A450. Work on B2 yielded an A450 of 0.049 A450. With B3 the A450 was 0.052 A450. B4 showed an A450 of 0.047 A450. B5 showed an A450 of 0.049 A450.

What follows are binders tested against T3, Human Id1: Histidine (assay: ELISA, Ab 0.500 µg/ml).
Description: as §1, §2, §3
B1 gave an A450 of 0.048 A450. B2 was tested, and the A450 was 0.051 A450. B3 showed an A450 of 0.049 A450. B4 gave an A450 of 0.048 A450. B5 showed an A450 of 0.047 A450.
